From publication PMC9330073, “Cargo Recognition Mechanisms of Yeast Myo2 Revealed by AlphaFold2-Powered Protein Complex Prediction” (Biomolecules, 2022)
Where two headings read alike, the source gives them in different places.

Columns and labels:
[1] = molecular target: GST-Pea2-CC1 (GST-tagged Pea2-CC1; dimer) (Saccharomyces cerevisiae (strain S288c)) (UniProt P40091); test: SEC-MALS; 100 μL of 100 μM protein on Superdex 200 Increase 10/300 GL; 50 mM Tris-HCl pH 7.5, 100 mM NaCl, 1 mM EDTA, 1 mM DTT
[2] = molecular target: Kar9^N (N-terminal folded domain of Kar9) (Saccharomyces cerevisiae (strain S288c)) (UniProt P32526); test: ITC; 500 μM Myo2-GTD in the syringe titrated into 50 μM Kar9-MIS or Pea2-MIS in the cell, 25 °C; one-site binding model
[3] = molecular target: GST-Pea2-CC1 (GST-tagged Pea2-CC1; dimer) (Saccharomyces cerevisiae (strain S288c)) (UniProt P40091); test: as above
[4] = molecular target: Kar9^C (unstructured C-terminal region of Kar9) (Saccharomyces cerevisiae (strain S288c)) (UniProt P32526); test: as above
[5] = molecular target: T1, Smy1-MIS::Myo2-GTD fusion protein (Saccharomyces cerevisiae | …); test: ITC
T1 chain: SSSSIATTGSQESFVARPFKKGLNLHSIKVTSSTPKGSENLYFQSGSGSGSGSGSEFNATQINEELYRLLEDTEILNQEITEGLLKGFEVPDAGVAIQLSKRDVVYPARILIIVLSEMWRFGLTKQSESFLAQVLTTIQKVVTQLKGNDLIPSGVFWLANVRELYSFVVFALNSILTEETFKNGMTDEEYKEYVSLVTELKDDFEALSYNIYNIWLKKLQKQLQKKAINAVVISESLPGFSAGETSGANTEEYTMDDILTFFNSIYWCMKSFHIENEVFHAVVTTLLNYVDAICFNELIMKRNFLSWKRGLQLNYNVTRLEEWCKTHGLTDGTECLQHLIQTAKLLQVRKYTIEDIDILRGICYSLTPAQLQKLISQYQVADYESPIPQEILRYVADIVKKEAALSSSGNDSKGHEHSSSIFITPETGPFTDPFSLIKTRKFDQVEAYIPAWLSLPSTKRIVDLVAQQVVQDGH

Myo2-GTD D1297N = molecular target: T2, Myo2-GTD D1297N (Saccharomyces cerevisiae); test: ITC
T2 chain: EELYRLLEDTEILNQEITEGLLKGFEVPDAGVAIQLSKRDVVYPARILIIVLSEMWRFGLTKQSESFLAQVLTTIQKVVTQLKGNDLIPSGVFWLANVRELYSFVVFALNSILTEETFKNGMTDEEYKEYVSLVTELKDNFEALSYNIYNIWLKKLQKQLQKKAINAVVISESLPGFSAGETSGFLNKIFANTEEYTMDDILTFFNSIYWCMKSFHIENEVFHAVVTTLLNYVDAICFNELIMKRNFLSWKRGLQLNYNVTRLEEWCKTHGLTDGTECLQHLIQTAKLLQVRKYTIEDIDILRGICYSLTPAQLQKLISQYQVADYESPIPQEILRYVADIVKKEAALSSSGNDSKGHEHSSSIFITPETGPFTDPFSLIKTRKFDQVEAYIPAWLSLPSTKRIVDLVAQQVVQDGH

[6] = molecular target: T3, Myo2-GTD (globular tail domain of Myo2) (Saccharomyces cerevisiae (strain S288c), UniProt P19524 1152-1574); test: ITC
T3 chain: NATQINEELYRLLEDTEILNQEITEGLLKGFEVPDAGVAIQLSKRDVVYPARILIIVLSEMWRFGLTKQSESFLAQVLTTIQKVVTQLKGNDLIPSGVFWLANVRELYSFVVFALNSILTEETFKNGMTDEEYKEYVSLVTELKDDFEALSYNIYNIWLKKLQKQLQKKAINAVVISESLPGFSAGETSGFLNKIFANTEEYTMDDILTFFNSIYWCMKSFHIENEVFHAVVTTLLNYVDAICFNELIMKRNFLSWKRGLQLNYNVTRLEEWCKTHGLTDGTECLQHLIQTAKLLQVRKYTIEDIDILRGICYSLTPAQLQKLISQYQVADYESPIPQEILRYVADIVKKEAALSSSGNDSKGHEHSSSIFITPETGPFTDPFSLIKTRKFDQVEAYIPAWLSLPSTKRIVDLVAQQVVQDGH

Myo2-GTD Y1303A = molecular target: T4, Myo2-GTD Y1303A (Saccharomyces cerevisiae); test: ITC
T4 chain: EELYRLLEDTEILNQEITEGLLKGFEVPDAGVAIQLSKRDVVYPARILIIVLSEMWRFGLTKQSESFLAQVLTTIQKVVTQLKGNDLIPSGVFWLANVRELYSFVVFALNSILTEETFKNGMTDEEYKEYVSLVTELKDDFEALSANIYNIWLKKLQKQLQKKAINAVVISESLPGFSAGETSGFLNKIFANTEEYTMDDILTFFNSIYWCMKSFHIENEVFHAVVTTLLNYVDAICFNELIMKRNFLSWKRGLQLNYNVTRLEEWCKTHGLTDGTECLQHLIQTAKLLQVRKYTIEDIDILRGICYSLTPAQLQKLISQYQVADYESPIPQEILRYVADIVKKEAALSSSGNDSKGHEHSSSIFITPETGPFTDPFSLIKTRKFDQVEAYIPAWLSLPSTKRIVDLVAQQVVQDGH

Myo2-GTD W1407A = molecular target: T5, Myo2-GTD W1407A (Saccharomyces cerevisiae (strain S288c)); test: ITC
T5 chain: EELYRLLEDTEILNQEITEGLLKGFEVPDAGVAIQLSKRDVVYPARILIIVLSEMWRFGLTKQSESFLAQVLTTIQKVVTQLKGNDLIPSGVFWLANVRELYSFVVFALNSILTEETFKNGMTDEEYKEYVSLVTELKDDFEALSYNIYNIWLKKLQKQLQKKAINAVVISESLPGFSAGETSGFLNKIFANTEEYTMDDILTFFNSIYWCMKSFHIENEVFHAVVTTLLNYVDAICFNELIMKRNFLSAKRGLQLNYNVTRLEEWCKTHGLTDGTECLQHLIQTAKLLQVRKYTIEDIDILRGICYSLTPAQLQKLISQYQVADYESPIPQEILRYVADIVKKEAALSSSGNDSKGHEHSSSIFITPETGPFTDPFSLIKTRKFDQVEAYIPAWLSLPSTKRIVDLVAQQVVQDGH

Myo2-GTD L1331S = molecular target: T6, Myo2-GTD L1331S (Saccharomyces cerevisiae (strain S288c)); test: ITC
T6 chain: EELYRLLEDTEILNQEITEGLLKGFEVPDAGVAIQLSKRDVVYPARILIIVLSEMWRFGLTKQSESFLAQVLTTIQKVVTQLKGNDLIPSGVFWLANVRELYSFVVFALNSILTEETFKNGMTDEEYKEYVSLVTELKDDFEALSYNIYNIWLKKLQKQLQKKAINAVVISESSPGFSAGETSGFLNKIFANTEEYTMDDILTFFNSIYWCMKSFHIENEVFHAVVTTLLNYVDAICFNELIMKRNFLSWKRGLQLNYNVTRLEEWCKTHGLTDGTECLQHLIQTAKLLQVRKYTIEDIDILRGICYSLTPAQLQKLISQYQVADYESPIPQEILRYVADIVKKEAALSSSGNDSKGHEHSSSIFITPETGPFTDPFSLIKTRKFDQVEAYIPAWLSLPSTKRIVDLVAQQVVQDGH

[7] = molecular target: T3, Myo2-GTD (globular tail domain of Myo2); test: ITC

## GST-Pea2-CC1 (GST-tagged Pea2-CC1; dimer) (from UniProt P40091 235-327) (domain or fragment)
[1]
  stoichiometry N: 2

## Myo2-GTD (globular tail domain of Myo2) (from UniProt P19524 1152-1574) (domain or fragment)
[2]
  Kd: 16 µM
[3]
  fold enhancement of the binding affinity over the Pea2-CC1 monomer: 5 fold
  stoichiometry N: 0.5
[4]
  Kd: 3 µM

B1: GST-Pea2-CC1 (GST-tagged Pea2-CC1; dimer) (domain or fragment)
chain: AIQEEDSSKKLEELETAFSDLQLAHNFLTKQFENDRAEYVQDIEKLTRTNRELQDKLLNNHSNLSKTEKKLHELEQENKELEKANNKLNSSRH
modifications: N-terminal GST (pGEX-4T-1) left out; GST drives the dimerization Limits taken from 6IXQ: the fusion as Smy1-MIS, TEV site, SG linker, Myo2-GTD, assumed uncleaved as a single chain; the linker is part of the fusion
[5]
  Kd: 12 µM

B2: Mmr1 (peptide)
chain: GNSARIPCPKTRLARVSVLDLKKIEEQPDSSSG
modifications: Limits taken from 6IXQ: the fusion as Smy1-MIS, TEV site, SG linker, Myo2-GTD, assumed uncleaved as a single chain; the linker is part of the fusion
[5]
  Kd: 6.2 µM

## GNSARIPCPKTRLARVSVLDLKKIEEQPDSSSG
Myo2-GTD D1297N
  Kd: 21 µM
[6]
  Kd: 6.8 µM

B3: Kar9^C-MIS (Myo2-interacting sequence in the C-terminal region of Kar9) (domain or fragment)
chain: ALKGKKLGKALLQKMNIKPATSPNSSNAINPFFDPESPNKGKLILSSVPPLPY
Myo2-GTD Y1303A
  Kd: 7.1 µM
Myo2-GTD D1297N
  Kd: 7.7 µM
Myo2-GTD W1407A
  Kd: 7.5 µM
Myo2-GTD L1331S
  Kd: 8.9 µM
[7]
  Kd: 7.7 µM

B4: Kar9 413-530 (protein)
chain: KKKIPKPKSLGFGRPNSVIGTITQDFQERVAINEGDSNKTPENSTTVALKGKKLGKALLQKMNIKPATSPNSSNAINPFFDPESPNKGKLILSSVPPLPYDETDETTLRVSRGENEKS
[7]
  Kd: 6.9 µM

## SSSSIATTGSQESFVARPFKKGLNLHSIKVTSSTPK (domain or fragment) [Smy1-MIS (Myo2-interacting sequence of Smy1)]
Myo2-GTD Y1303A
  Kd: 14 µM
Myo2-GTD D1297N
  Kd: 14 µM
[6]
  Kd: 21 µM

B5: Kar9^N (N-terminal folded domain of Kar9) (domain or fragment)
chain: MDNDGPRSMTIGDDFQENFCERLERIHNTLHSINDCNSLNESTTSISETLLVQFYDDLENVASVIPDLVNKKRLGKDDILLFMDWLLLKKYMLYQFISDVHNIEEGFAHLLDLLEDEFSKDDQDSDKYNRFSPMFDVIEESTQIKTQLEPWLTNLKELLDTSLEFNEISKDHMDTLHKIINSNISYCLEIQEERFASPIRHTPSFTLEQLVKLLGTHTETTEPKVPKFSPAEDILSRKFLNLKKNIPPIEKSLTDILPQRIVQFGHRNITNITTLQTILQKKYELIMKDYRFMNSEFRELKVELIDKRWNILFINLNHELLYILDEIERLQSKLLTTKYTKDITIRLERQLERKSKTVSKTFNIIYRALEFSLLDAGVASKTNELAQRWLNIKPTADKILIKSSASNKIATSKKKIPKPKSLGFGRPNSVIGTITQDFQERVAINEGDSNKTPENSTTVALKGKKLGKALLQKMNIKPATSPNSSNAINPFFDPESPNKGKLILSSVPPLPYDETDETTLRVSRGENEKSPDSFITSRHENKVQITETPLMAKNKSVLDIEKDKWNHYRSLPSRIPIYKDKVVKVTVENTPIAKVFQTPPTKITTPNSQVWVPSTRRRTRLRPPTPLSQLLSPREGRLDKTPTY
Myo2-GTD Y1303A
  Kd: 16 µM
Myo2-GTD D1297N
  Kd: 16 µM

B6: Kar9^N (N-terminal folded domain of Kar9) (domain or fragment)
chain: MDNDGPRSMTIGDDFQENFCERLERIHNTLHSINDCNSLNESTTSISETLLVQFYDDLENVASVIPDLVNKKRLGKDDILLFMDWLLLKKYMLYQFISDVHNIEEGFAHLLDLLEDEFSKDDQDSDKYNRFSPMFDVIEESTQIKTQLEPWLTNLKELLDTSLEFNEISKDHMDTLHKIINSNISYCLEIQEERFASPIRHTPSFTLEQLVKLLGTHTETTEPKVPKFSPAEDILSRKFLNLKKNIPPIEKSLTDILPQRIVQFGHRNITNITTLQTILQKKYELIMKDYRFMNSEFRELKVELIDKRWNILFINLNHELLYILDEIERLQSKLLTTKYTKDITIRLERQLERKSKTVSKTFNIIYRALEFSLLDAGVASKTNELAQRWLNIKPTADKILIKSSASNKIATSKKKIPKPKSLGFGRPNSVIGTITQDFQERVAINEGDSNKTPENSTTVALKGKKLGKALLQKMNIKPATSPNSSNAINPFFDPESPNKGKLILSSVPPLPYDETDETTLRVSRGENEKSPDSFITSRHENKVQITETPLMAKNKSVLDIEKDKWNHYRSLPSRIPIYKDKVVKVTVENTPIAKVFQTPPTKITTPNSQVWVPSTRRRTRLRPPTPLSQLLSPREGRLDKTPTY
modifications: Limits taken from 6IXQ: the fusion as Smy1-MIS, TEV site, SG linker, Myo2-GTD, assumed uncleaved as a single chain; the linker is part of the fusion
[5]
  Kd: 17 µM

## NHGFHLDILKGRK [Inp2]
[6]
  Kd: 32 µM

B7: Vac17-MIS (Myo2-interacting sequence of Vac17) (domain or fragment)
chain: PNEAPNDSPQSQSTRSSLGSFQPRPLKIIERQRLCMVTPSKPPKKS
modifications: Limits taken from 6IXQ: the fusion as Smy1-MIS, TEV site, SG linker, Myo2-GTD, assumed uncleaved as a single chain; the linker is part of the fusion
[5]
  Kd: 0.32 µM
